{"source": "the nanobody polyreactivity screen of Harvey et al. (2022)"}
{"assay": "yeast display, Sf9 membrane polyspecificity reagent, FACS + sequencing; frameworks hold sequencing errors", "summary_of_the_method": "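Using colony PCR, genes from sorted yeast display clones were amplified, then sequenced on MiSeq at 2 × 250 and filtered by CDR length. The clones had been stained with 10% biotinylated, detergent-solubilized Sf9 membrane reagent for 1 hour at 4 °C and sorted by FACS into low and high (top ~1%) gates on anti-HA and streptavidin fluorescence. Polyreactivity labels come from the gate of origin.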"}
{"sequence": "QVQLVESVGGLVQAGGSHRLSGAASGRTLYRYGLGWYRQAPGKDRELVAVIDRGGSTNYADSVKGRFTISRDNAKNTVYLQMNSLKPEDTAVYYCAKRWTAREAWRKGMGYWGQGTKVTVSS", "polyreactivity (PSR sort gate)": "high polyreactivity"}
{"sequence": "QVQLVESGGGLVQAGGSLRLSCAASGRTFYRNAMGWYKQAPGKERELVAAISRSGGSTYYADSVKGRFTISRDNAKNTVYLQMNSLKPEDTAVYYCNKRYPLGTEYYYWGLGTQVTVSS", "polyreactivity (PSR sort gate)": "high polyreactivity"}
{"sequence": "QVQLVESGGGLDQAGGSLRLSCAASGSIFMPNAMGWYRQAPGKERELVAAISASTSSTYYADSVKGRFTISRDNAKNTVYLEMNSLKPEDTGVYYCAAYYVFFYLEDVYYEYDYWGQGTQVTVSS", "polyreactivity (PSR sort gate)": "high polyreactivity"}
{"sequence": "QVQLEESGGGLVQAGGSLRLSCAPSGLTFGGNAMGWYRQAPGKERELVAAISSGGSTNYADSVKGRFTISRDNAKNTDFLNMNSLKPEDTAVYYCAARDRPGNYFTEYGYWGQGTQVTVSS", "polyreactivity (PSR sort gate)": "low polyreactivity"}
{"sequence": "QVQLVESGGGLVQAGGSLRLSCAASGSIFYWYAMGWYSQAPGKERELVAAIDISDDTYYADSVKGRFTISRDNAKNTVYLQMNSLKPEDTAGYYCAARTTRWFYEYDWGQGSQVTVSS", "polyreactivity (PSR sort gate)": "high polyreactivity"}
{"sequence": "QVQLVESGGGLVQAGGSLRLSCAASGGTIAFNGMGWYRQAPAKERELVAAITWRSGSTYYADSVKGRFTISRDNAKNTVYLQMNSLKPEDTAVYYCAARLYRYTPFDYWGQGTQVTVSS", "polyreactivity (PSR sort gate)": "high polyreactivity"}
{"sequence": "QVQLVESGGGLVQAGGSLRLSCAASGSTFYYYAMGWYRQAPGKERELVAAITKSRGSTYYADSVKGRFTISRDNAKNTVYLQMNSLKPEDTAVYDCAAYLRSGYKFDYWGQGTQGTVSS", "polyreactivity (PSR sort gate)": "low polyreactivity"}
{"sequence": "QVQLVESGGGLVQAGGSLRLSCAASGRMFSAYAMGWYRQAPGKERELVAAITSVGSTKYADSVKGRFTISRDNAKNTVYLQMNSLKPEDTAVYYCAAEYTRSFYIYYRFGYWGQGTQVTVSS", "polyreactivity (PSR sort gate)": "high polyreactivity"}
{"sequence": "QVQLVESGGGLVQAGGSLRLSCAASGRIFVPNPMGWYRQAPGKDRELVAAITNGGRTKYADSVKGRFTISRDNAKNTVYLQMNSLKPEDTAVYYCAADLYRWFYYWGQGTQVTVSS", "polyreactivity (PSR sort gate)": "high polyreactivity"}
{"sequence": "QVQLVESGGGLVQAGGSLRLSCAASGRTLYGYAMGWYRQAPGKEREFVAAISRSGGRTYYADSVKGRFTISRDNAKNTVYLQMNSLKPEDTAVYYCAARQYQAKQPYGYYPGYGYWGQGTQVTVSS", "polyreactivity (PSR sort gate)": "high polyreactivity"}
{"sequence": "QVQLVESGVGLVQAGGSLRLSCAGSGFNFIANAMGWYRQAPGKERELVAAISDGGSTYYADSVKGRFTISRDNAKNTVYLQMNSLKPEDTAVYYCAKDVTWAGHYDYWGQGTQVTVSS", "polyreactivity (PSR sort gate)": "low polyreactivity"}
{"sequence": "QVQLVESGGGLVQAGGSLRLSCAASGLIFKSNAMGWYRPAPGKERELVAAITRTGGSTYYADSVKGRFTISRDNAKNTVYLQMNSLKPEDTAVYYCAKVVGRWRSSWELDYWGQGTQVTVSS", "polyreactivity (PSR sort gate)": "high polyreactivity"}
{"sequence": "QVQLVESGGGLVQAGGSLRLSCAASGRTYKYYAMGWYRQAPGKERELVAAISRGGSTNYADSVKGRFTISRDNAKKTVYLQVNSLKPEDTAVYYCARRYIVQSGDDYWGQGTQVSVSS", "polyreactivity (PSR sort gate)": "low polyreactivity"}
{"sequence": "QDQLVESGGGLVQAGGSLRLSFAASVSTFTTYAKGWYRQAPGKERELVAAIDWSDGSITYYADSVKGRFTISRDNAKNTVYLQMNSLKPEDTAVYYCAKDNSQYGWGYDYWVQGTQVTVSS", "polyreactivity (PSR sort gate)": "low polyreactivity"}
{"sequence": "QVQLVESGGGLVQAGGSLRLSCSASGFTFRWYTMGWYTQSPGNERELVAAINYSGGSTYYADSVKGRFTISRDNAKNTVYLQMNSLKPEDTAVYYCAAQIYFPGRRYDYWGQGTQVTVSS", "polyreactivity (PSR sort gate)": "high polyreactivity"}
{"sequence": "QVQLVESGGGLVQAGGSLRLSCAASGSTFKSYAMGWYRQAPGKERELVAAITHRGSTYYADSVKGRFTISRDNAKNTVDLQMNSLKPEDTAVYYCNVRRIGNGRRVDYWGQGTQVTVSS", "polyreactivity (PSR sort gate)": "high polyreactivity"}
{"sequence": "QVQLVESGGVLDQAGGSLRLICAASGITLFHYVMGWYRQAPGKEMELVAVISSSGGSTYYADSVKGRFTISRDNAKNTVYLQMNSLKPEDTAVYYCAAETDSRKARVLYDYWGQGTQVTVSS", "polyreactivity (PSR sort gate)": "high polyreactivity"}
{"sequence": "QVQLVESGGGLVQAGGSLRLSCAASGYIFYYNTMGWYRQAPGKERELVAAISATGGRTYYADSVKGRFTISRDNAKNTVYLQMNSLKPEDTAVYYCAKRGISPYGYWGQGTQVTVSS", "polyreactivity (PSR sort gate)": "high polyreactivity"}
{"sequence": "QVQLVESGGGLVQAGGSLRLSCAASGIILAYYAMRWYRQAPGKERELVASINRSGGSTYYADSVKGRFTISRDNAKNTVYFQMNSMKPEDTAVYYCDATTRGVGQWWYRYYYWGQGTQVTVSS", "polyreactivity (PSR sort gate)": "high polyreactivity"}
{"sequence": "QVQLVESGGGLVQAGGSLRLSCAASGRIFKYYTMGWYRQATGKEREFVASITGSGGTTYYADSVKGRFTISRDNAKNTVYLQMNSLKPEDTAVYYCNAYSYPYWYRYYYWGQGTQVTVSS", "polyreactivity (PSR sort gate)": "high polyreactivity"}
{"sequence": "QVQLVESGGVLVQAGGSLRLICAASGSTFEFYAMGWYRQEPGKERELVARITWNGGNTYADSVKGRYTISRDNAKNNVYLQMNSLKPEDTSVYYCATDYVVGFYYWGQGTQVTVSS", "polyreactivity (PSR sort gate)": "low polyreactivity"}
{"sequence": "QVQLVESGRGLVQAGGSLRLSCAASGRTFPFYAMGWYRQAPGKEREFVAAITASGDSTYYADSVKGRFTISRDNAKNTVYFQMHSLKPEDTAVYYCAADLPVWYVTRYDYWGQATQVTVSS", "polyreactivity (PSR sort gate)": "low polyreactivity"}
{"sequence": "QVQLVESGGGLVQAGGSLRLSCAASGSTFRYNAMGWYRQAPGKERELVAAISKGGGRTYYADSVKGRFTISRDNAKNTVYLQMNSLKPEDTAVYYCAATYGTGRRSKYGYWGQGTQVTVSS", "polyreactivity (PSR sort gate)": "high polyreactivity"}
{"sequence": "QVQLVESGGGLVQAGGSLRLSCAASGSTLRRYAMGWYRQAPGKERELVAAISGTGSRTYYADSVKGRFSISRDNATNTVYLHMISLKREDTAVYYCNASPYGLTENDYWGQGTQVTVSS", "polyreactivity (PSR sort gate)": "high polyreactivity"}
{"sequence": "QVQLVESGGGLVQAGGSLRLSCAASGSTFQGYAMGWYRQAPGKERELVAAINYSGGSTYYADSVKGRFTISRDNAKNTVYFQMNSLKPEDTAVYYCAVKLRSRAVTSYGYWGQGTQVTVSS", "polyreactivity (PSR sort gate)": "high polyreactivity"}
{"sequence": "QVQLVESGGGLVQAGGSLRLSCAASGSTFGYNAMGWYRQAPGKERELVATITSTGGGTYYADSVKGRFTISRDNAKNTVYLQMNSLKPEDTAVYYCAAVYYSLDYVHGYPPHYDYWGQGTQVTVSS", "polyreactivity (PSR sort gate)": "low polyreactivity"}
{"sequence": "QGQLVESGGGLVQAGGSLRLSCAASGFTFDYYAMGWYRQAPGKARELVAAITTAASTNYADSVKGRFTISRDTAKNTVYFQMNSLKPEDTAVYYCAASWWPWYISWDDYWGQGTQVTVSS", "polyreactivity (PSR sort gate)": "high polyreactivity"}
{"sequence": "QVQLVESGGGLVQAGGSLRLSCAASGSTFGYYAMGWYRQAPGKERELVAAIRYSGGTTYYADSVKGRFTISRDNAKNTVYLQMNSLKPEDTAVYYCAAVYTSGYYYWGQGTQVTVSS", "polyreactivity (PSR sort gate)": "high polyreactivity"}
{"sequence": "QVQLVESGGGLVQAGGSLRLSCAASGITFLVYVMGWYRQAPGKERELVAAISSGGSTYYADSVKGRFTISRDNAKNTVYLQMNSLKPEDTAVYYCSADTVGTNVVSPELDYWGQGTQVTVSS", "polyreactivity (PSR sort gate)": "low polyreactivity"}
{"sequence": "QVQLVESGGGLVQAGGSLRLSCAASGRIFRWYAMGWYRQAPGKERELVATISSSGRTNYADSVKGRFTISRDNAKNTVYLQMNSLKPEDTAVYYCNADGGDWFGYVGMDYWGQGTQVTVSS", "polyreactivity (PSR sort gate)": "high polyreactivity"}
{"sequence": "QVQLVESGGGLVQAGGTLRLSCAASGSTFTDYDMGWYRQAPGQERELVAAITSGGSTNYADSVKGRFTISRDNAKNTVYLQMNSLKPEDTAVYYCAAADADRKYDFWGQGTQVTVSS", "polyreactivity (PSR sort gate)": "low polyreactivity"}
{"sequence": "QVQLVESGGGLVQAGGSLRLSCAATGRNFRYNAIGWYRQATGKERELVATISRGGGSTYYADSVKGRFTISRDNAQNTVYLQMNSLKPEDTAVYYCATRYYQDIVGYSRYDYWGQGTQVTVSS", "polyreactivity (PSR sort gate)": "high polyreactivity"}
{"sequence": "QVQLVEAGGGLVQAGGSLRLSCAASAFTFSPTAMGWYRQAPGKERELGAAIDWSGDRTYYADSVKGRFTISRAHAKNTVYLQMNSLKPEDTGVYYCNVVRRSPGDYSYYYWGQGSQVTVSS", "polyreactivity (PSR sort gate)": "low polyreactivity"}
{"sequence": "QVQLVESGGGLVHAGGSLRLSCAASGRTVKNNAMGWYRQSPGKERDLVAAISSTGSTNYADSVKGRFTISRDNAKNPVYLQMNSLKPADTAVYYCAAEGIFRYYTQATMEYWGQGTQVTVSS", "polyreactivity (PSR sort gate)": "low polyreactivity"}
{"sequence": "QVQLVESGGGLVQAGGSLRLSCAASGITFFTYAMGWYRQAPGKERELVATISRSGGRTYYADSVKGRFTISRDNAKNTVYLQMNSLKPEDTAVYYCAARTYYWGALIVSYDYWGQGTQVTVSS", "polyreactivity (PSR sort gate)": "low polyreactivity"}
{"sequence": "QVQLVESGGGLVQAGGSLRLSCAASGSTFYKYAMGWYRQAPGKERELVASISRSGGSTSYADSVKGRFTISRDYAKNTVYLQMNSLKPEDTAVYYCAATWRQHPGSMGYWGQGTQVTVSS", "polyreactivity (PSR sort gate)": "high polyreactivity"}
{"sequence": "QVQLVESGGGLVQAGGSLRLSCASSGRTSVINAMGWYRQAPGKERELVATITWSGASTYYADSVKGRFTISRDNAKNTVYLQMNSLKPEDTAVYYCNAESLYTPYNDTSLTVEYGYWGQGTQVTVSS", "polyreactivity (PSR sort gate)": "low polyreactivity"}
{"sequence": "QVQLVESGGGLVQAGGSLRLSCADSGTTVIFNAMGWYRQAPGKERELVGAISWRLGRTYYAYSVKGRFTISRDNAKNTVYLQMNSLTPEDTAVYYCARDYSRHKGDYWGQGTQVTVSS", "polyreactivity (PSR sort gate)": "low polyreactivity"}
{"sequence": "QVQLVESGGGLVQAGGSLRLSCAASGGIFYYYAMGWYRQAPGKERELVAAISWSGGSTYYADSVKGRFTISRDNAKNTVYLQMNSLKPDDTAVYYCATYSDFHYAQLEYDYWGQGTQVTVSS", "polyreactivity (PSR sort gate)": "low polyreactivity"}
{"sequence": "QVQLVESGGGLVQAGGSLRLSCAASGSTVYVYTMGGYRQAPGKERELVAANSLSGDNTYYADSVKGRFTISRDNAKNTVYLQKNSLKPEATAVYYCNADIIGFPADYLYDYWGQGTQVTVSS", "polyreactivity (PSR sort gate)": "low polyreactivity"}
{"sequence": "QVQLVESGGRLVQAGGSLRLSCAASGRIFRRYAMGWYRQAPGKERELVATINSGGTTNYADSVKGRFTISRDNAKNTVYLQMNSLKPEDTAVYYCNARSARYSGFDYWGQGTQVTVSS", "polyreactivity (PSR sort gate)": "high polyreactivity"}
{"sequence": "QVQLVESGGGLVQAGGSLRLSCAASGYSFSPNAMGWYRQEPGKDRELVAAISSGVSTDYADSVKGRFSISRDNAKNTVYLQMNSLKPEDTAVYYCAADDQYRVTLGYVYWGQGTQVTVSS", "polyreactivity (PSR sort gate)": "low polyreactivity"}
{"sequence": "QVQLVESGGGLVQAGGSLRLSCAASGFTFNFNAMGCYIQAPGKERELLAAIRYRGGSTNYADSVKGSFTISRDNAKNTVYVMMNSLKPEDTAVYYCNVYYYRTYSHVLPGYEYWGQGTQVPVSS", "polyreactivity (PSR sort gate)": "high polyreactivity"}
